{"source": "paper PMC9455167", "key": {"[1]": {"molecular_target": "Recombinant human Src kinase (Abcam 79635) (human) (UniProt P12931)"}, "[2]": {"molecular_target": "Recombinant human Src kinase (Abcam 79635) (human) (UniProt P12931)", "experiment": "MST; RED-tris-NTA-labelled His-tagged Src kinase constant at 50 nM; unlabelled Na,K-ATPase 0.2 nM to 16 µM; 50 mM Tris/HCl pH 7.4, 150 mM NaCl, 10 mM MgCl2; Monolith NT.115, LED 100%, MST power 40%"}}, "data": [{"substance": "Na,K-ATPase purified from duck salt glands (complex)", "values": [{"measurement": "reduction of Src autophosphorylation at Tyr416 in vitro (purified Na,K-ATPase, Src kinase, ATP; Western blot p-Src/Src)", "setting": "[1]", "value": 70, "unit": "%"}, {"measurement": "Kd", "setting": "[2]", "value": 210, "unit": "nM"}]}]}
